Results published in patent publication US20110263454A1, “Methods of Identifying Functional Characteristics of Promoters, Transcription Modifying Proteins and Transcription Modulating Agents” (Salk Institute for Biological Studies, priority 2008, published 2011).

B1: CAR: Constitutive Androstane Receptor (NR1I3), cDNA driver (protein, UniProt Q14994 1-352, looked up)
Nuclear receptor subfamily 1 …: MASREDELRNCVVCGDQATGYHFNALTCEGCKGFFRRTVSKSIGPTCPFAGSCEVSKTQRRHCPACRLQKCLDAGMRKDMILSAEALALRRAKQAQRRAQQTPVQLSKEQEELIRTLLGAHTRHMGTMFEQFVQFRPPAHLFIHHQPLPTLAPVLPLVTHFADINTFMVLQVIKFTKDLPVFRSLPIEDQISLLKGAAVEICHIVLNTTFCLQTQNFLCGPLRYTIEDGARVSPTVGFQVEFLELLFHFHGTLRKLQLQEPEYVLLAAMALFSPDRPGVTQRDEIDQLQEEMALTLQSYIKGQQRRPRDRFLYAKLLGLLAELRSINEAYGYQIQHIQGLSAMMPLLQEICS
B2: RARb: Retinoic acid receptor β (NR1B2), nuclear hormone receptor cDNA driver (protein, UniProt P10826 1-455, looked up)
Retinoic acid receptor beta: MTTSGHACPVPAVNGHMTHYPATPYPLLFPPVIGGLSLPPLHGLHGHPPPSGCSTPSPATIETQSTSSEELVPSPPSPLPPPRVYKPCFVCQDKSSGYHYGVSACEGCKGFFRRSIQKNMIYTCHRDKNCVINKVTRNRCQYCRLQKCFEVGMSKESVRNDRNKKKKETSKQECTESYEMTAELDDLTEKIRKAHQETFPSLCQLGKYTTNSSADHRVRLDLGLWDKFSELATKCIIKIVEFAKRLPGFTGLTIADQITLLKAACLDILILRICTRYTPEQDTMTFSDGLTLNRTQMHNAGFGPLTDLVFTFANQLLPLEMDDTETGLLSAICLICGDRQDLEEPTKVDKLQEPLLEALKIYIRKRRPSKPHMFPKILMKITDLRSISAKGAERVITLKMEIPGSMPPLIQEMLENSEGHEPLTPSSSGNTAEHSPSISPSSVENSGVSQSPLVQ
B3: RARg: Retinoic acid receptor γ (NR1B3), nuclear hormone receptor cDNA driver (protein, UniProt P13631 1-454, looked up)
Retinoic acid receptor gamma: MATNKERLFAAGALGPGSGYPGAGFPFAFPGALRGSPPFEMLSPSFRGLGQPDLPKEMASLSVETQSTSSEEMVPSSPSPPPPPRVYKPCFVCNDKSSGYHYGVSSCEGCKGFFRRSIQKNMVYTCHRDKNCIINKVTRNRCQYCRLQKCFEVGMSKEAVRNDRNKKKKEVKEEGSPDSYELSPQLEELITKVSKAHQETFPSLCQLGKYTTNSSADHRVQLDLGLWDKFSELATKCIIKIVEFAKRLPGFTGLSIADQITLLKAACLDILMLRICTRYTPEQDTMTFSDGLTLNRTQMHNAGFGPLTDLVFAFAGQLLPLEMDDTETGLLSAICLICGDRMDLEEPEKVDKLQEPLLEALRLYARRRRPSQPYMFPRMLMKITDLRGISTKGAERAITLKMEIPGPMPPLIREMLENPEMFEDDSSQPGPHPNASSEDEVPGGQGKGGLKSPA
B4: FXR: Farnesoid X Receptor (NR1H4), cDNA driver (protein, UniProt Q96RI1 1-486, looked up)
Bile acid receptor: MVMQFQGLENPIQISPHCSCTPSGFFMEMMSMKPAKGVLTEQVAGPLGQNLEVEPYSQYSNVQFPQVQPQISSSSYYSNLGFYPQQPEEWYSPGIYELRRMPAETLYQGETEVAEMPVTKKPRMGASAGRIKGDELCVVCGDRASGYHYNALTCEGCKGFFRRSITKNAVYKCKNGGNCVMDMYMRRKCQECRLRKCKEMGMLAECMYTGLLTEIQCKSKRLRKNVKQHADQTVNEDSEGRDLRQVTSTTKSCREKTELTPDQQTLLHFIMDSYNKQRMPQEITNKILKEEFSAEENFLILTEMATNHVQVLVEFTKKLPGFQTLDHEDQIALLKGSAVEAMFLRSAEIFNKKLPSGHSDLLEERIRNSGISDEYITPMFSFYKSIGELKMTQEEYALLTAIVILSPDRQYIKDREAVEKLQEPLLDVLQKLCKIHQPENPQHFACLLGRLTELRTFNHHHAEMLMSWRVNDHKFTPLLCEIWDVQ
B5: PXR: Pregnane X Receptor (NR1I2), cDNA driver (protein, UniProt O75469 1-434, looked up)
Nuclear receptor subfamily 1 …: MEVRPKESWNHADFVHCEDTESVPGKPSVNADEEVGGPQICRVCGDKATGYHFNVMTCEGCKGFFRRAMKRNARLRCPFRKGACEITRKTRRQCQACRLRKCLESGMKKEMIMSDEAVEERRALIKRKKSERTGTQPLGVQGLTEEQRMMIRELMDAQMKTFDTTFSHFKNFRLPGVLSSGCELPESLQAPSREEAAKWSQVRKDLCSLKVSLQLRGEDGSVWNYKPPADSGGKEIFSLLPHMADMSTYMFKGIISFAKVISYFRDLPIEDQISLLKGAAFELCQLRFNTVFNAETGTWECGRLSYCLEDTAGGFQQLLLEPMLKFHYMLKKLQLHEEEYVLMQAISLFSPDRPGVLQHRVVDQLQEQFAITLKSYIECNRPQPAHRFLFLKIMAMLTELRSINAQHTQRLLRIQDIHPFATPLMQELFGITGS
B6: PPARd: Peroxisome proliferator activated receptor δ (NR1C2), cDNA driver (protein, UniProt Q03181 1-441, looked up)
Peroxisome …: MEQPQEEAPEVREEEEKEEVAEAEGAPELNGGPQHALPSSSYTDLSRSSSPPSLLDQLQMGCDGASCGSLNMECRVCGDKASGFHYGVHACEGCKGFFRRTIRMKLEYEKCERSCKIQKKNRNKCQYCRFQKCLALGMSHNAIRFGRMPEAEKRKLVAGLTANEGSQYNPQVADLKAFSKHIYNAYLKNFNMTKKKARSILTGKASHTAPFVIHDIETLWQAEKGLVWKQLVNGLPPYKEISVHVFYRCQCTTVETVRELTEFAKSIPSFSSLFLNDQVTLLKYGVHEAIFAMLASIVNKDGLLVANGSGFVTREFLRSLRKPFSDIIEPKFEFAVKFNALELDDSDLALFIAAIILCGDRPGLMNVPRVEAIQDTILRALEFHLQANHPDAQYLFPKLLQKMADLRQLVTEHAQMMQRIKKTETETSLHPLLQEIYKDMY

Experiments:
mPgc1b promoter = assay: NHR-promoter luciferase screen, mPgc1b promoter; type: cell-based, mouse; conditions: for Luc. act., normalized to lacZ / Normalized Luc. act., normalized to control: PGC1b promoter reporter, co-transfected HR, without or with its ligand; for Normalized Luc. act., normalized to control: relative to control; for luciferase activity normalized to lacZ activity and to a control, mPgc1b: mPgc1b promoter-luciferase, CV-1 cells, NHR +/- ligand, control = 1.00
How it was run: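 CV-1 cells co-transfected with NHR homodimer or NHR/RXR heterodimer (pcDNA3.1, C-terminal V5H6 tag), promoter-luciferase construct and LacZ transfection control. Orphan receptors screened without ligand. Luciferase normalized to LacZ and to no-NHR/no-ligand control.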

hG6PD promoter = assay: NHR-promoter luciferase screen, hG6PD promoter; type: cell-based, human; conditions: for Luc. act., normalized to lacZ / Normalized Luc. act., normalized to control: G6PD promoter reporter, co-transfected HR, without or with its ligand; for Normalized Luc. act., normalized to control: relative to control; for luciferase activity normalized to lacZ activity and to a control, hG6PD: hG6PD promoter-luciferase, CV-1 cells, NHR +/- ligand, control = 1.00
How it was run: (§1)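 CV-1 cells were co-transfected with 50 ng NHR (homodimer or NHR/RXR heterodimer), 100 ng promoter-luciferase construct and 50 ng LacZ. Luciferase was normalized to LacZ and to a no-NHR/no-ligand control.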

hIRF7 promoter = assay: NHR-promoter luciferase screen, hIRF7 promoter; type: cell-based, human; conditions: for Normalized Luc. act., normalized to control / Luc. act., normalized to lacZ: IRF7 promoter reporter; for Normalized Luc. act., normalized to control: HR without or with its ligand, relative to control; for Luc. act., normalized to lacZ: hormone receptor (HR) without or with its ligand; for hIRF7 promoter reporter activity: transcription factor +/- ligand, control = 1.00
How it was run: as §1

mAdiponectin promoter = assay: NHR-promoter luciferase screen, mAdiponectin promoter; type: cell-based, mouse; conditions: for Luc. act., normalized to lacZ / Normalized Luc. act., normalized to control: Adiponectin, HR component without or with its ligand; for mAdiponectin promoter reporter activity: transcription factor +/- ligand, control = 1.00
How it was run: as §1

hPPARg1 promoter = assay: NHR-promoter luciferase screen, hPPARg1 promoter; type: cell-based, human; conditions: for Luc. act., normalized to lacZ / Normalized Luc. act., normalized to control: PPARG1 promoter, hormone receptor with or without its ligand; for Normalized Luc. act., normalized to control: relative to control; for Results of assays of transcription factor (+/- ligand) with hPPARg1: Table 6d, luciferase activity relative to control (control = 1.00)
How it was run: as §1

hPPARg2 promoter = assay: NHR-promoter luciferase screen, hPPARg2 promoter; type: cell-based, human; conditions: for Luc. act., normalized to lacZ / Normalized Luc. act., normalized to control: PPARG2 promoter, hormone receptor with or without its ligand; for Normalized Luc. act., normalized to control: relative to control; for Results of assays of transcription factor (+/- ligand) with hPPARg2: Table 6d, luciferase activity relative to control (control = 1.00)
How it was run: as §1

Molecule | Luc. act., normalized to lacZ (mPgc1b promoter) | Normalized Luc. act., normalized to control (mPgc1b promoter) | luciferase activity normalized to lacZ activity and to a control, mPgc1b (mPgc1b promoter) | Luc. act., normalized to lacZ (hG6PD promoter) | Normalized Luc. act., normalized to control (hG6PD promoter) | luciferase activity normalized to lacZ activity and to a control, hG6PD (hG6PD promoter) | Normalized Luc. act., normalized to control (hIRF7 promoter) | Luc. act., normalized to lacZ (hIRF7 promoter) | hIRF7 promoter reporter activity (hIRF7 promoter) | Luc. act., normalized to lacZ (mAdiponectin promoter) | Normalized Luc. act., normalized to control (mAdiponectin promoter) | mAdiponectin promoter reporter activity (mAdiponectin promoter) | Luc. act., normalized to lacZ (hPPARg1 promoter) | Normalized Luc. act., normalized to control (hPPARg1 promoter) | Results of assays of transcription factor (+/- ligand) with hPPARg1 (hPPARg1 promoter) | Luc. act., normalized to lacZ (hPPARg2 promoter) | Normalized Luc. act., normalized to control (hPPARg2 promoter) | Results of assays of transcription factor (+/- ligand) with hPPARg2 (hPPARg2 promoter)
B1 | 9.21 | 0.8 | 0.78 | 46.4 | 1.2 | 1.24 | 1.4 | 37.3 | 1.42 | 46.8 | 0.7 | 0.74 | 46.4 | 0.7 | 0.67 | 1.3 | 0.6 | 0.63
B2 | 14.32 | 1.2 | 1.21 | 56.6 | 1.5 | 1.52 | 1.8 | 47.2 | 1.79 | 81.2 | 1.3 | 1.29 | 100.6 | 1.5 | 1.46 | 3.4 | 1.7 | 1.72
B3 | 12.70 | 1.1 | 1.07 | 58.8 | 1.6 | 1.57 | 1.8 | 47.5 | 1.80 | 62.6 | 1.0 | 1.00 | 80.1 | 1.2 | 1.16 | 3.0 | 1.5 | 1.51
B4 | 7.82 | 0.7 | 0.66 | 42.6 | 1.1 | 1.14 | 1.6 | 41.8 | 1.59 | 62.6 | 1.0 | 1.00 | 54.8 | 0.8 | 0.80 | 1.8 | 0.9 | 0.89
B5 | 10.19 | 0.9 | 0.86 | 42.5 | 1.1 | 1.14 | 1.4 | 36.3 | 1.38 | 97.1 | 1.5 | 1.55 | 63.3 | 0.9 | 0.92 | 1.8 | 0.9 | 0.91
B6 | 7.88 | 0.7 | 0.67 | 48.7 | 1.3 | 1.30 | 1.3 | 33.6 | 1.27 | 89.4 | 1.4 | 1.42 | 46.0 | 0.7 | 0.67 | 2.5 | 1.2 | 1.24
